Measurements published in doi:10.1101/2021.10.12.464151.
One block for each molecule: values may come before it.

What was measured:
[1] = target: Kip3_(448) K257A-R262A (yeast); assay: BLI
[2] = target: Kip3_(448)^R351A-R353A (yeast); assay: BLI
[3] = target: tubulin purified from bovine brains (αβ-tubulin heterodimer) (bovine)

fold weaker affinity (increased Kd) relative to wild-type Kip3 (448) [1]: 10 fold | fold lower affinity (against Kip3 (448)) [2]: 1.8 fold
Molecule: tubulin purified from bovine brains (αβ-tubulin heterodimer) (complex)

plus-end dwell time on microtubules, against wild type [3]: 2 fold
B1: Kip3FL^K257A-R262A (natural protein)
chain: MNVPETRQSSIVVAIRVRPFTSMEKTRLVNEASGAEANFPGLGDSSLILPMSNNSDSDIDIDAEEGSTRSKRNSLLRRKVIRPEGIRKIVDCVDDRMLIFDPADRNPLNKVSDQVLNSMRARATKATASSINNSNATNKFSSQRRRHGGEIKFVFDKLFDETSSQARVYKETTSPLLDSVLDGFNSTVFAYGATGCGKTYTVSGTPSQPGIIFLAMEELFNKITDLKDEKDFEISLSYLEIYNERIRDLLKPETPSARLVIAEDTQNHIKVANLSYHHPNTVEDVMDLVVQGNINRTTSPTEANEVSSRSHAVLQIHIMQTNKLVDLTSQHTFATLSIIDLAGSERAAATRNRGIRLHEGANINRSLLALGNCINALCLNDGSRSCHIPYRDSKLTRLLKFSLGGNCKTVMIVCISPSSSHYDETLNTLKYANRAKEIKTKIIRNQQSLSRHVGSYLKMITEQKRQIEELREREEKMISLKLTKYKLNKEKIQLAINECVNRVQQTYAGVETYQVAKTLKSLILCKRRFLQMVKLEVDNLILLFEREESTAAEMQPVISNCRMISGQLYNKIHELEMKFDETDTLSSVIHQVHSIDLNKLREMEDWDETYDLVYLESCLNQISELQRNEILVNSSIMTEKLMSDPGLNSRFKFLSKWLMNRTPNIESIIQDLVHIDEEFESFARTFIANPDSNFTNTNINIINTTAADLAVPAETLQRQNFSQKKVKWTSPDLSPSPMIEPQPELEPELHQDQDAIASEVDVSMQDTTFNEQGPSTPSAPTTAVPRRKMRSSLLTHQSLLATARK
modifications: TMR (HALO-TMR ligand) on the HALO tag
